Measurements published in patent US20060140889A1.

How the values were obtained:
[1] = target: bovine serum albumin (bovine) (UniProt P02769); experiment: gel-shift, 2 mg/ml conjugate with 10 mg/ml BSA, 7.5% native PAA gel; Rf of the conjugate alone 0.66
[2] = target: bovine serum albumin (bovine) (UniProt P02769); experiment: gel-shift, 0.1 mg/ml conjugate with 10 mg/ml BSA, 7.5% native PAA gel, in situ peroxidase activity; Rf of the conjugate alone 0.31
[3] = target: hair proteins; experiment: ELISA on coated hair proteins, blocking 0.5% BSA, iMab (OD280 1.09) diluted 100 x, anti-VSV-HRP; background without iMab 0.095
[4] = target: ELK (3% skim milk powder solution); experiment: ELISA, control well with ELK only, ~50 ng iMab per well, anti-VSV-HRP; urea purification
[5] = target: skin proteins; experiment: ELISA on coated skin proteins, blocking Seablock, iMab (OD280 0.323) diluted 100 x, anti-VSV-HRP; background without iMab 0.131
[6] = target: hair proteins; experiment: ELISA on coated hair proteins, blocking 0.5% BSA, iMab (OD280 4.22) diluted 100 x, anti-VSV-HRP; background without iMab 0.095
[7] = target: skin proteins; experiment: ELISA on coated skin proteins, blocking 0.5% BSA, iMab (OD280 0.323) diluted 100 x, anti-VSV-HRP; background without iMab 0.484
[8] = target: hair proteins; experiment: ELISA on coated hair proteins, blocking 0.5% BSA, iMab (OD280 2.36) diluted 100 x, anti-VSV-HRP; background without iMab 0.095
[9] = target: hair proteins; experiment: ELISA on coated hair proteins, blocking 0.5% BSA, iMab (OD280 2.82) diluted 100 x, anti-VSV-HRP; background without iMab 0.095
[10] = target: skin proteins; experiment: ELISA on coated skin proteins, blocking 0.5% BSA, iMab (OD280 0.327) diluted 100 x, anti-VSV-HRP; background without iMab 0.484
[11] = target: skin proteins; experiment: ELISA on coated skin proteins, blocking Seablock, iMab (OD280 0.327) diluted 100 x, anti-VSV-HRP; background without iMab 0.131
[12] = target: chicken lysozyme (chicken), P00698; experiment: ELISA versus lysozyme, iMab dilution 1:10, before pH shock; settings: remark: other sources report otherwise
Sequence of chicken lysozyme (chicken), P00698 (P00698 19-147 limits assumed): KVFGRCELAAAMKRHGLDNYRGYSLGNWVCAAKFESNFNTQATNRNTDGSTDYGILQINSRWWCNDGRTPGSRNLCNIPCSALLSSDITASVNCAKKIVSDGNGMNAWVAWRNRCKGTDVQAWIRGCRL

[13] = target: chicken lysozyme (chicken), P00698; experiment: ELISA, well coated with lysozyme (100 ug/ml) and blocked with ELK, ~50 ng iMab per well, anti-VSV-HRP; urea purification; settings: remark: other sources report otherwise
[14] = target: chicken lysozyme (chicken), P00698; experiment: ELISA versus lysozyme, iMab dilution 1:1000, before pH shock; settings: remark: other sources report otherwise
[15] = target: chicken lysozyme (chicken), P00698; experiment: ELISA versus lysozyme, iMab dilution 1:10, after precipitation with potassium acetate pH 4.8 and redissolving in PBS pH 7.5; settings: remark: other sources report otherwise
[16] = target: chicken lysozyme (chicken), P00698; experiment: ELISA versus lysozyme, iMab dilution 1:100, after precipitation with potassium acetate pH 4.8 and redissolving in PBS pH 7.5; settings: remark: other sources report otherwise
[17] = target: chicken lysozyme (chicken), P00698; experiment: ELISA versus lysozyme, iMab dilution 1:1000, after precipitation with potassium acetate pH 4.8 and redissolving in PBS pH 7.5; settings: remark: other sources report otherwise
[18] = target: chicken lysozyme (chicken), P00698; experiment: ELISA versus lysozyme, iMab dilution 1:10,000, after precipitation with potassium acetate pH 4.8 and redissolving in PBS pH 7.5; settings: remark: other sources report otherwise
[19] = target: chicken lysozyme (chicken), P00698; experiment: ELISA versus lysozyme, iMab dilution 1:10,000, before pH shock; settings: remark: other sources report otherwise
[20] = target: chicken lysozyme (chicken), P00698; experiment: ELISA versus lysozyme, iMab dilution 1:100, before pH shock; settings: remark: other sources report otherwise
[21] = target: chicken lysozyme (chicken), P00698; experiment: ELISA, well coated with lysozyme (100 ug/ml) and blocked with ELK, ~50 ng iMab per well, anti-VSV-HRP; purification by heat (60 C); settings: remark: other sources report otherwise
[22] = target: ELK (3% skim milk powder solution); experiment: ELISA, control well with ELK only, ~50 ng iMab per well, anti-VSV-HRP; purification by heat (60 C)
[23] = target: hair proteins; experiment: ELISA on coated hair proteins, blocking 0.5% BSA, iMab (OD280 3.60) diluted 100 x, anti-VSV-HRP; background without iMab 0.095
[24] = target: skin proteins; experiment: ELISA on coated skin proteins, blocking 0.5% BSA, iMab (OD280 0.585) diluted 200 x, anti-VSV-HRP; background without iMab 0.484
[25] = target: skin proteins; experiment: ELISA on coated skin proteins, blocking Seablock, iMab (OD280 0.585) diluted 200 x, anti-VSV-HRP; background without iMab 0.131
[26] = target: skin proteins; experiment: ELISA on coated skin proteins, blocking Seablock, iMab (OD280 0.828) diluted 250 x, anti-VSV-HRP; background without iMab 0.131
[27] = target: hair proteins; experiment: ELISA on coated hair proteins, blocking 0.5% BSA, iMab (OD280 3.19) diluted 100 x, anti-VSV-HRP; background without iMab 0.095
[28] = target: skin proteins; experiment: ELISA on coated skin proteins, blocking 0.5% BSA, iMab (OD280 0.828) diluted 250 x, anti-VSV-HRP; background without iMab 0.484
[29] = target: hair proteins; experiment: ELISA on coated hair proteins, blocking 0.5% BSA, iMab (OD280 1.71) diluted 100 x, anti-VSV-HRP; background without iMab 0.095
[30] = target: skin proteins; experiment: ELISA on coated skin proteins, blocking Seablock, iMab (OD280 0.357) diluted 100 x, anti-VSV-HRP; background without iMab 0.131
[31] = target: skin proteins; experiment: ELISA on coated skin proteins, blocking 0.5% BSA, iMab (OD280 0.357) diluted 100 x, anti-VSV-HRP; background without iMab 0.484
[32] = target: skin proteins; experiment: ELISA on coated skin proteins, blocking 0.5% BSA, iMab (OD280 0.399) diluted 100 x, anti-VSV-HRP; background without iMab 0.187
[33] = target: skin proteins; experiment: ELISA on coated skin proteins, blocking Seablock, iMab (OD280 0.399) diluted 100 x, anti-VSV-HRP; background without iMab 0.084
[34] = target: skin proteins; experiment: ELISA on coated skin proteins, blocking 0.5% BSA, iMab (OD280 0.711) diluted 200 x, anti-VSV-HRP; background without iMab 0.484
[35] = target: skin proteins; experiment: ELISA on coated skin proteins, blocking Seablock, iMab (OD280 0.711) diluted 200 x, anti-VSV-HRP; background without iMab 0.131

Sequence of bovine serum albumin (bovine) (P02769 25-607 limits assumed): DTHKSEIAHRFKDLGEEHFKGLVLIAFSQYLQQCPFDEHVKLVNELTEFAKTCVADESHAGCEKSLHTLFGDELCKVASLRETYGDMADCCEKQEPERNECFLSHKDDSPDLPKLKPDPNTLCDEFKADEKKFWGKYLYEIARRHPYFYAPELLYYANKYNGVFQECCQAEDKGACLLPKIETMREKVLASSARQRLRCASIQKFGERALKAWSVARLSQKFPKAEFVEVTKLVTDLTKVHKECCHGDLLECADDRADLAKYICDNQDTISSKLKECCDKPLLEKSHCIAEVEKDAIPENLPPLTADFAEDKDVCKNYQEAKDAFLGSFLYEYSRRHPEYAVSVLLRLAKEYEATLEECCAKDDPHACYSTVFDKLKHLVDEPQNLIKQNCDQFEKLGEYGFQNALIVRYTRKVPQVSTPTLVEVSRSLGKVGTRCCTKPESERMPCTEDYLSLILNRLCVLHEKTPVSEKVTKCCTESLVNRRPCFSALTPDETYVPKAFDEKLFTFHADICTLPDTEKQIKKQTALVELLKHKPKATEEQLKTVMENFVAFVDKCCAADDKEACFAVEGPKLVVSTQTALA

B1: TRITC labeled iMab142-xx-0002 (designed binder, not shown: small tags and cut ends)
chain: MNVKLVEKGGNFVENDDDLKLTCRAEGYTIGPYSMGWFRQAPNDDSTNVSCINMGGGITYYGDSVKERFDIRRDNASNTVTLSMDDLQPEDSAVYNCAADWWDGFTYGSTWYNPSSYDYRGQGTDVTVSS
modifications: TRITC covalently on primary amines, meaning the N-terminus and Lys side chains. Positions and number are not stated; labelled Lys is written K.
B1 was tested, and the retardation factor (Rf) [1] was 0.66.

B2: iMab142-xx-0002-HRP conjugate (protein, not shown: small tags and cut ends)
chain: MNVKLVEKGGNFVENDDDLKLTCRAEGYTIGPYSMGWFRQAPNDDSTNVSCINMGGGITYYGDSVKERFDIRRDNASNTVTLSMDDLQPEDSAVYNCAADWWDGFTYGSTWYNPSSYDYRGQGTDVTVSS
modifications: Amines (N-terminus and Lys) were thiolated with SATA, deacetylated, and coupled by thioether to maleimide-activated horseradish peroxidase. The sites and the iMab:HRP ratio of the product are not stated.
With B2 the retardation factor (Rf) [2] was 0.31.

B3: iMab142-xx-0038 (designed binder)
chain: NVKLVEKGGNFVENDDDLKLTCRAEGYTIGPYSMGWFRQAPNDDSTNVSCINMGGGITYYGDSVKERFDIRRDNASNTVTLSMDDLQPEDSAEYNCATTLAPFGIATMYGPLNPAAFESRGQGTDVTVSS
With B3 the OD450 in Elisa [3] was 2.35 OD450.

B4: iMab122 (designed binder, not shown: small tags and cut ends)
chain: NVKLVEKGGNFVENDDDLKLTCRASGRTFSSRTMGWFRQAPNDDSTNVATIRWNGGSTYYTNYGDSVKERFDIRVDQASNTVTLSMDDLQPEDSAEYNCAGTDIGDGWSGRYDYRGQGTDVTVSS
With B4 the Absorbtion (450 nm) (absorbance at 450 nm) [4] was 0.051.

B5: iMab143-xx-0030 (designed binder)
chain: MIKVYTDRENYGAVGSQVTLHCSASGYTIGPISFTWRYQPEGDRDAISIFHYNMGDGSIVIHNLDYSDNGSFTCAAVFAVVTVATKPDPRFYDYGNSSQVTLYVFEA
In the case of B5, the OD450 in Elisa [5] is reported as 0.56 OD450, the OD450 in Elisa [6] is reported as 0.262 OD450 and the OD450 in Elisa [7] is reported as 2.02 OD450.

B6: iMab142-xx-0039 (designed binder)
chain: NVKLVEKGGNFVENDDDLKLTCRAEGYTIGPYSMGWFRQAPNDDSTNVSCINMGGGITYYGDSVKERFDIRRDNASNTVTLSMDDLQPEDSAEYNCAADYGRCSWLIRAYNYRGQGTDVTVSS
B6 was tested, and the OD450 in Elisa [8] was 1.32 OD450.

B7: iMab143-xx-0031 (designed binder)
chain: MIKVYTDRENYGAVGSQVTLHCSASGYTIGPISFTWRYQPEGDRDAISIFHYNMGDGSIVIHNLDYSDNGSFTCAATTPFIDYDPNDICPSWYEYDYGNSSQVTLYVFE
Binder B7 has an OD450 in Elisa [9] of 1.05 OD450, an OD450 in Elisa [10] of 2.62 OD450 and an OD450 in Elisa [11] of 2.88 OD450.

B8: iMab111 (designed binder)
chain: NVKLVCKGGNFVENDDDLKLTCRAEGYTIGPYCMGWFRQAPNDDSTNVATINMGGGITYYGDSVKERFDIRRDNASNTVTLSMDDLQPEDSAEYNCAGDSTIYASYYECGHGLSTGGYGYDSHYRCQGTDVTVSS
B8 was tested, and the Absorbtion (450 nm) (absorbance at 450 nm) [4] was 0.043.

B9: iMab116 (designed binder, not shown: small tags and cut ends)
chain: NVKLVEKGGNFVENDDDLKLTCRAEGYTIGPYCMGWFRQAPNDDSTNVATINMGGGITYYGDSVKERFDIRRDNASNTVTLSMDDLQPEDSAEYNGAGDSTIYGSYYECGHGLSTGGYGYDSHYRGQGTDVTVSS
With B9 the Absorbtion (450 nm) (absorbance at 450 nm) [4] was 0.042.

B10: iMab100 (designed binder, not shown: small tags and cut ends)
chain: NVKLVEKGGNFVENDDDLKLTCRAEGYTIGPYCMGWFRQAPNDDSTNVATINMGGGITYYGDSVKERFDIRRDNASNTVTLSMDDLQPEDSAEYNCAGDSTIYASYYECGHGLSTGGYGYDSHYRGQGTDVTVSS
In the case of B10, the Signal on Elisa [12] is reported as 0.36, the Absorbtion (450 nm) (absorbance at 450 nm) [13] is reported as 0.494 and the Absorbtion (450 nm) (absorbance at 450 nm) [4] is reported as 0.04. For the same binder, the Signal on Elisa [14] was 0.128, the Signal on Elisa [15] was 0.39 and the Signal on Elisa [16] was 0.263. For the same binder, the Signal on Elisa [17] was 0.169, the Signal on Elisa [18] was 0.059 and the Signal on Elisa [19] was 0.059. The Signal on Elisa [20] was 0.228, the Absorbtion (450 nm) (absorbance at 450 nm) [21] was 0.369 and the Absorbtion (450 nm) (absorbance at 450 nm) [22] was 0.041.

B11: iMab143-xx-0029 (designed binder)
chain: MIKVYTDRENYGAVGSQVTLHCSASGYTIGPISFTWRYQPEGDRDAISIFHYNMGDGSIVIHNLDYSDNGSFTCAARFVDALYEPKSCTSRNYAYGNSSQVTLYVFE
Binder B11 has an OD450 in Elisa [23] of 0.203 OD450, an OD450 in Elisa [24] of 1.88 OD450 and an OD450 in Elisa [25] of 0.212 OD450.

B12: iMab143-xx-0033 (designed binder)
chain: MIKVYTDRENYGAVGSQVTLHCSASGYTIGPISFTWRYQPEGDRDAISIFHYNMGDGSIVIHNLDYSDNGSFTCAADLHGLGLRRISTYEYGNSSQVTLYVFE
In the case of B12, the OD450 in Elisa [26] is reported as 0.29 OD450, the OD450 in Elisa [27] is reported as 0.442 OD450 and the OD450 in Elisa [28] is reported as 1.66 OD450.

B13: iMab143-xx-0034 (designed binder)
chain: MIKVYTDRENYGAVGSQVTLHCSASGYTIGPISFTWRYQPEGDRDAISIFHYNMGDGSIVIHNLDYSDNGSFTCAAYRIRSGGYYCFLTYLMDYGNSSQVTLYVFE
Work on B13 yielded an OD450 in Elisa [29] of 0.736 OD450, an OD450 in Elisa [30] of 0.699 OD450 and an OD450 in Elisa [31] of 2.23 OD450.

B14: iMab142-xx-0032 (designed binder)
chain: MNVKLVEKGGNFVENDDDLKLTCRAEGYTIGPYSMGWFRQAPNDDSTNVSCINMGGGITYYGDSVKERFDIRRDNASNTVTLSMDDLQPEDSAEYNCAATLAPFSIATMYGGLLDTAFDSRGQGTDVTVSS
In the case of B14, the OD450 in Elisa [32] is reported as 0.306 OD450 and the OD450 in Elisa [33] is reported as 0.088 OD450.

B15: iMab143-xx-0035 (designed binder)
chain: MIKVYTDRENYGAVGSQVTLHCSASGYTIGPISFTWRYQPEGDRDAISIFHYNMGDGSIVIHNLDYSDNGSFTCAAGADCSDYGIMYGMDYGNSSQVTLYVFE
B15 showed an OD450 in Elisa [34] of 0.824 OD450 and an OD450 in Elisa [35] of 1.79 OD450.
